These results are taken from the nanobody polyreactivity screen of Harvey et al. (2022).

The series can be described thus: yeast display, Sf9 membrane polyspecificity reagent, FACS + sequencing; frameworks hold sequencing errors. Summed up: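 Polyreactivity labels are assigned by the sorting gate from which each nanobody was recovered. The gates were low and high (top ~1%), set on anti-HA fluorescence for expression and streptavidin fluorescence for reagent binding. Before sorting, galactose-induced (36–48 hours) yeast display cells were stained for 1 hour at 4 °C with 10% biotinylated, detergent-solubilized Sf9 membrane reagent.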
Take “QVQLVESGGGLVQAGGSLRLSCAASGLTFGIYTMGWYRQAPGKERELVAAINWIGTRTYYADSVKGRFTLSRDNAKNTVYLQMNSLKPEDTAVYYCATVIGYTKRKYDYWGQGTQVTVSS”: the “polyreactivity (PSR sort gate)” value was “high polyreactivity”.

For “QVQLVESGGGLVQAGGSLRLSCAASGLTFGLYAMGWYRQAPGIERELVAGITAGGRTYYADSVKGRFTISRDNAKNTVYLQMNSLKPEQTAVYYCATVNYRSGRGYRRVYTAYYYWGQGTQVTVSS”, the “polyreactivity (PSR sort gate)” value is reported as “low polyreactivity”.

Turning to “QVQLVESGGGLVQAGGSLRLSCAASGLTFGNYAMGWYRQAPGKERELVAAISWGGGITYYADSVKGRFTISRDNAKNTVYLQMNSLKPEDTAVYYCAADVYFKSTPEYLYDYWGQGTQVTVSS”, the “polyreactivity (PSR sort gate)” value is reported as “low polyreactivity”.

“QVQLVESGGGLVQAGGSLRLSCAASGLTFGPNAMGWYRQAPGKERELVAAITKSGGSTYYADSVKGRFTISRDNAKNTVYLQMNSLKPEDTAVFYCAARAGYKVFGYWGQGTQVTVSS”: the “polyreactivity (PSR sort gate)” value is “high polyreactivity”.

Take “QVQLVESGGGLVQAGGSLRLSCAASGLTFGPYAMGWYRQAPGKERELVAAISLSDTDTYYAASVKGRFTISRDNAKNTGYLQMNSLKPEDTAVYYCAAEDGGLYDYWGQGTQVTVSA”: the “polyreactivity (PSR sort gate)” value is “high polyreactivity”.

Take “QVQLVESGGGLVQAGGSLRLSCAASGLTFGRNAMGWYRQAPGKERELVAAISQSGDRTYYADSVKGRFTISRDNAKNTVYLQMNSLKPEDTAVYYCNAVSSRGWYDYWGQGTQVTLSS”: the “polyreactivity (PSR sort gate)” value is “high polyreactivity”.

In the case of “QVQLVESGGGLVQAGGSLRLSCAASGLTFGRNAMGWYRQAPGKERELVAAISRSGGRTSYADSVKGRFTISRDNAKNTVYLQMNSLKPEDTAVYYCAARSDVYTHDYWGQGTQVTVSS”, the “polyreactivity (PSR sort gate)” value is on record as “high polyreactivity”.

As for “QVQLVESGGGLVQAGGSLRLSCAASGLTFGRNAMGWYRQAPGKERELVAAITFNGGSTYYADSVKGRFTISRDNAKNTVYLQMNSLKPEDTAVYYCAARLWRRSRFDYWGQGTQVTVSS”, the “polyreactivity (PSR sort gate)” value is “high polyreactivity”.

Regarding “QVQLVESGGGLVQAGGSLRLSCAASGLTFGVYAMGWYRQAPGKERELVASIRSGGSTYYADSVKGRFTISRDNAKNTVYLQMNSLKPEDTAVYYCAKGTFDLHYRKRYNYWGQGTQVTVSS”, the “polyreactivity (PSR sort gate)” value is “low polyreactivity”.

As to “QVQLVESGGGLVQAGGSLRLSCAASGLTFGWYTMGWYRQAPGKERELVAAISWSGGSTYYADSVKGRFTISRDNAKNTVYLQMNSLKPEDTAVYYCAADQSTVLDVGSWGQGTQVTVSS”, the “polyreactivity (PSR sort gate)” value is “low polyreactivity”.

As to “QVQLVESGGGLVQAGGSLRLSCAASGLTFGWYTMGWYRQAPGKERELVADITWSGGSTYYADSVKGRFTISRDNAKNTVYLQMNSLKPEDTAVYYCAVRYFVIPWYAYDYWGQGTQVTVSS”, the “polyreactivity (PSR sort gate)” value is reported as “low polyreactivity”.

For “QVQLVESGGGLVQAGGSLRLSCAASGLTFGYNAMGWYRQAPGKERELVAAITYGGGRTYYADSVKGRFTISRDNAMNTVYLQMNSLKPEDPAVYYCNVVWKAYAEYDYWGQGTQVTVSS”, the “polyreactivity (PSR sort gate)” value is recorded as “high polyreactivity”.

For the sequence “QVQLVESGGGLVQAGGSLRLSCAASGLTFGYNAMGWYRQAPGNERELVATISYSGGRTYYADSVKGRFTISRDNAKTTVYLQMNSLKPEDTAVYDCATRQRHWSGEFDYWGQGTQVTVSS”, the “polyreactivity (PSR sort gate)” value is given as “high polyreactivity”.

Regarding “QVQLVESGGGLVQAGGSLRLSCAASGLTFHAYAMGWYRQAPGKEREFVAAITRSGSSTSYAYSVKGRFTISRDNAKNTVYLQMNSLKPEDTAVYYCAAQGSRKYRNDYWGQGTQVTVSS”, the “polyreactivity (PSR sort gate)” value is reported as “high polyreactivity”.

In the case of “QVQLVESGGGLVQAGGSLRLSCAASGLTFHPYAMGWYRQAPGKERELVAAISSRGTSTYYADSVKGRFTISRDNAKNTVYLQMNSLKPEDTAVYYCAARHGPRAEAMYYWGQGTQVTVSS”, the “polyreactivity (PSR sort gate)” value is listed as “high polyreactivity”.

Consider “QVQLVESGGGLVQAGGSLRLSCAASGLTFHQNAMGWYRKAPGKDRELVAAISRRGGSTYYADSVKGRFTFSRDNAKNTVYLQMNSLKPEDTAVYYSNTRGKSGLWCYNYWGQGTQVTVSS”, for which the “polyreactivity (PSR sort gate)” value is recorded as “high polyreactivity”.

Consider “QVQLVESGGGLVQAGGSLRLSCAASGLTFHRYAMGWYRQAPGKERELVAAINYSGGRTYYADSVKGRFTISRDNAKNTVYLQMNSLKPEHTAVYYCAAPRASGYYWGQGTQVTVSS”, for which the “polyreactivity (PSR sort gate)” value is “high polyreactivity”.

As to “QVQLVESGGGLVQAGGSLRLSCAASGLTFHWYTMGGYRQAPGKERELVAAISSRGGSTYYADSVKGRFTISRDNAKNTDYLQMNSLKPEDTAVYYCAKARRVGFTPIYENWGQGTQVTVSS”, the “polyreactivity (PSR sort gate)” value was “high polyreactivity”.

Take “QVQLVESGGGLVQAGGSLRLSCAASGLTFIFNAMGWYRQAPGKERELVADISSGVNTNYADSVKGRFTISRDNAKNTVYLQMNSLKPEDTAVYYCNARRYWLRYDYWGQGTQVTVSS”: the “polyreactivity (PSR sort gate)” value is given as “low polyreactivity”.

With “QVQLVESGGGLVQAGGSLRLSCAASGLTFIPNAMGWYREAPGKERELVAAISGTGGSTYYADSVKGRFTISRDNAKNTVYLLMNSLKPEDTAVYYCAARRRYKSGYWGQGTQVTVSS”, the “polyreactivity (PSR sort gate)” value was “high polyreactivity”.

As to “QVQLVESGGGLVQAGGSLRLSCAASGLTFIYYAMGWYRQAPGKERELVAAISVSGGSTYYADSVKGRFTISRDNAKNTVYLQMNSLKPEDTAVYYCAADWFVHKPRYQYSFDYWGQGTQVTVSS”, the “polyreactivity (PSR sort gate)” value is reported as “low polyreactivity”.

Turning to “QVQLVESGGGLVQAGGSLRLSCAASGLTFKSYAMGWYRQAPGKERELVAAISWRGGRTYYADSVKGRFTISRDNAKNTVYLQMNSLKPEDTAVYYSNARSQQWWLSRYNYWGQGTQVTVSS”, the “polyreactivity (PSR sort gate)” value is given as “high polyreactivity”.

Take “QVQLVESGGGLVQAGGSLRLSCAASGLTFKSYTMGWYRQAPGKERELVATISGSGTRTYYADSVKGRFTISRDNAKNTVYLQMNSLKPEDTAVYYCARVIWYNNYFRYSGYRSDYWGQGTQVTVSS”: the “polyreactivity (PSR sort gate)” value is “high polyreactivity”.

“QVQLVESGGGLVQAGGSLRLSCAASGLTFKVYDMGGYRQAPGKERELVAAIWSDGDTYYADSVKGRFTISRDNAKNTVYLQMNSLKPEDTAVYYCAADPVWTVHFVFGNKYDYWGQGTQVTVSS”: the “polyreactivity (PSR sort gate)” value is given as “low polyreactivity”.

As for “QVQLVESGGGLVQAGGSLRLSCAASGLTFKWNTMGWYRQAPGKERELVAAISWRVVSTYYADSVKGRFTISRDNAKNTFYLQMNSLKQEDTAVYYDYWGQGTQVTVSS”, the “polyreactivity (PSR sort gate)” value was “low polyreactivity”.

With “QVQLVESGGGLVQAGGSLRLSCAASGLTFKWYAMGWYRPAPGKERELVAAISRDGSTYYADSVKGRFTISRDNAKNTVYLQMNSLKPEDTAVYNCAADIWPSSLLADEYDYWGQGTQVTVSS”, the “polyreactivity (PSR sort gate)” value is “high polyreactivity”.

For the sequence “QVQLVESGGGLVQAGGSLRLSCAASGLTFKYYAMGWYRQAPGKERELVAAISWRGGSTYYADSVKGRFTISRDNAKNTVYLQMNSLKPEDTAVYYCAAPGNNVRNAPRKRDYWGQGTQVTVSS”, the “polyreactivity (PSR sort gate)” value is listed as “high polyreactivity”.

For the sequence “QVQLVESGGGLVQAGGSLRLSCAASGLTFLKNAMGWYRQAPGKERELVAAISDGGSTNYADSVKGRFTISRDNAKNTVYLQMNSLKPEDTAVYYCAAVYTSASYGSWGQGTQVTVSS”, the “polyreactivity (PSR sort gate)” value is given as “low polyreactivity”.

In the case of “QVQLVESGGGLVQAGGSLRLSCAASGLTFLRNGMGWYRQAPGKERELVASITRSGARTYYADSVKGRFTISRDNAKNTVYLQMNSLKPEDTAVSYCAARAYVSHYGVSNFGDYYWGQGTQVTVSS”, the “polyreactivity (PSR sort gate)” value was “high polyreactivity”.

“QVQLVESGGGLVQAGGSLRLSCAASGLTFNVYAMGWSRQAPGTERELVAALTSGGRTYYADSVKGRFTISRDNEKNTVYLQMNSLKPEDTAVYYCSKSRWYGYSLSGAKRQRSFDYWGQGTQVTVSS”: the “polyreactivity (PSR sort gate)” value is given as “high polyreactivity”.

In the case of “QVQLVESGGGLVQAGGSLRLSCAASGLTFNYYAMGWYRQAPGKERDLVAASTSSGSSTYYADSVKGRFTISRDNAKNTVSLQMNSLKAEDTAVYYCAVSRCSFYWLVDYWGQGTQVTVSS”, the “polyreactivity (PSR sort gate)” value is reported as “high polyreactivity”.

As to “QVQLVESGGGLVQAGGSLRLSCAASGLTFNYYAMGWYRQAPGKERELVAAITSSGGRTYYADSVKGRFTISRDNAKNTFYLQMNSLKPEDTAVYYCNTVSYRQGAVWFRYDYWGQGTQVTVSS”, the “polyreactivity (PSR sort gate)” value is on record as “high polyreactivity”.

On to “QVQLVESGGGLVQAGGSLRLSCAASGLTFNYYAMGWYRQAPGKERELVASISKRGGTYYADSVKGRFTLSRDNAKNTVYLQMNSLKPEDTAVYYCAADYWFRRNEYDYWGQGTQVTVSS”, for which the “polyreactivity (PSR sort gate)” value was “high polyreactivity”.

As for “QVQLVESGGGLVQAGGSLRLSCAASGLTFPDYAMGWYRQAPGKERELVAAITIDGSTYYADSVKGRFTISRDNAKNTVYLQMNSLTPEDTAVYYCNAQVGVPYAMYYWGQGTQVTVSS”, the “polyreactivity (PSR sort gate)” value is given as “low polyreactivity”.

Regarding “QVQLVESGGGLVQAGGSLRLSCAASGLTFPFYTMGWYRQAPGKERELVAAISRRGGSTYYADSVKGRFTISRDNAKNTVYLQLNSLKPEDTAVYYCAADKYSWYDYWGQGTQVTVSS”, the “polyreactivity (PSR sort gate)” value was “low polyreactivity”.

“QVQLVESGGGLVQAGGSLRLSCAASGLTFPHNAMGWYRQAPGKERELVAAITSSGCSTYYADSVKGRFTISRDNAMNSVYLQMNSLKPEDTAVYYCAKRDGTDRLDDYWGQGTQVTVSS”: the “polyreactivity (PSR sort gate)” value is given as “high polyreactivity”.

For the sequence “QVQLVESGGGLVQAGGSLRLSCAASGLTFPHYAMGWYRQAPGKERELVAAISSGGSTHYADSVKGRFTISRDNAKNTVYLQMNSLKPEDTAVYYCAARRHGRRTVQGKFDFWGQGTQVTVSS”, the “polyreactivity (PSR sort gate)” value was “high polyreactivity”.

For “QVQLVESGGGLVQAGGSLRLSCAASGLTFPIYAMGWYRQAPGKEREFVAVITTSGGSTYYSDSVKGRFTISRDNAKNTVYLQMNSLKPEDTAVYYCNARRIRHYYWGQGTQVTVSS”, the “polyreactivity (PSR sort gate)” value was “high polyreactivity”.

In the case of “QVQLVESGGGLVQAGGSLRLSCAASGLTFPLYAMGWYRPAPGKEREFVAAITVSGVSTSYADSVKGRFTISRDNAKNTVYLQMNSLKPEDTAVYYCAADYYIWTYWDVYYWGQGTQVTVSS”, the “polyreactivity (PSR sort gate)” value was “high polyreactivity”.

Consider “QVQLVESGGGLVQAGGSLRLSCAASGLTFPLYAMGWYRQAPGKEREFVAAITVSGVSTSYADSVKGRFTISRDNAKNTVYLQMNSLKPEDTAVYYCAADYYIWTYWDVYYWGQGTQVTVSS”, for which the “polyreactivity (PSR sort gate)” value is “high polyreactivity”.

As to “QVQLVESGGGLVQAGGSLRLSCAASGLTFPQYAMGWYRQAPGKERELVAAISKTGGSTYYADSVKGRFTISRDNAKNTVYLQMNSLKPEDTAVYYCAAVESGDRGQRNNYWGQGTQVTVSS”, the “polyreactivity (PSR sort gate)” value is “high polyreactivity”.
